Data from paper PMC6312871 (Heliyon, 2018).
Several values for one entry are separate records, joined by “and”; a condition that tells them apart may be missing. Identical values can stand only once.

Columns and labels:
[1] = molecular target: Photosystem I (monomer) (Prochlorococcus marinus MIT9313 (endogenous in thylakoid membranes)) (UniProt Q7V510); experiment: sucrose gradient centrifugation
[2] = molecular target: Photosystem I (monomer) (Prochlorococcus marinus MIT9313 (endogenous in thylakoid membranes)) (UniProt Q7V510); experiment: native gel or EMSA
[3] = molecular target: Photosystem II (monomer, core complex) (Prochlorococcus marinus MIT9313 (endogenous in thylakoid membranes)) (UniProt Q7V6I0); experiment: native gel or EMSA
Sequence of Photosystem II (monomer, core complex) (Prochlorococcus marinus MIT9313 (endogenous in thylakoid membranes)) (Q7V6I0 whole entry, looked up, one chain of several): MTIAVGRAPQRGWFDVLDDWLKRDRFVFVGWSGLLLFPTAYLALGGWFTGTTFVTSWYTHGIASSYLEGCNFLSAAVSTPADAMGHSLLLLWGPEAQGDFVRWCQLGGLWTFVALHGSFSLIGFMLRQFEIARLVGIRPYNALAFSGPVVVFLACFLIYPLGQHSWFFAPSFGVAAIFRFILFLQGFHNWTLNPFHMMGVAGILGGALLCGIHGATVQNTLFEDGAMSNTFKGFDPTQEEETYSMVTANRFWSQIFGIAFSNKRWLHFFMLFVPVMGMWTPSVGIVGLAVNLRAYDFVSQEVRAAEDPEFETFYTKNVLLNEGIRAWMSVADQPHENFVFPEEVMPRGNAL

[4] = molecular target: Photosystem II (monomer, core complex) (Prochlorococcus marinus MIT9313 (endogenous in thylakoid membranes)) (UniProt Q7V6I0); experiment: native gel or EMSA; remark: listed apart in the source
native gel or EMSA = molecular target: the molecule itself; experiment: native gel or EMSA

## Photosystem I (monomer) (from UniProt Q7V510 1-776; Q7V511 1-749; Q7V8Y4 1-68) (complex)
[1]
  stoichiometry N: 3
[2]
  stoichiometry N: 3

## Photosystem II (monomer, core complex) (from UniProt Q7V6I0 1-351; Q7V4Q1 1-49; Q7V4P9 1-65)
[3]
  stoichiometry N: 2

B1: light-harvesting antenna protein PcbB (divinyl chlorophyll a/b-binding protein) (natural protein, UniProt Q7V6U4 1-350, looked up)
chain: MQTYGNPNPTYGWWAGNAGTTNRSGKFLAAHIAHTGLMAFWAGSFTLFELSRYDPSVPMGHQPLVALPHLATLGIGVGDGGVITDTYPIVVTAVLHLVLSMVYAAGGLMHSLLFNGDIGEMGVKWARKFDFKWDDPDKLTFILGHHLFLLGLGNVQFVEWAKYYGLYDNAEGVVRTVVPNLNIGMVWNAQFNFLAINSLEDVMGGHAFLALFMMSGGLWHIVTKQAGEYTTFKGKGILSAEAQLSWALAGVGWMALVAAFWCASNTTIYPDTFFGEVLDLKFSISPYWVDTANLPEGTYTSRAWLTNIHYYLGFFYIQGHLWHALRALGFDFKRVSNAIGNADSATITLN
[4]
  stoichiometry N (PcbB per PSII dimer): 8
Native gel or EMSA
  stoichiometry N: 2 and 3 and 4
